# Read-outs that look alike come from different tables or passages of the source. Ends that are not written are not given here.
# B1: β-casein 5p: β-casein phosphoprotein with 5 phosphorylated residues, item 3 (protein, UniProt P02666 16-224, looked up)
# Beta-casein: RELEELNVPGEIVESLSSSEESITRINKKIEKFQSEEQQQTEDELQDKIHPFAQTQSLVYPFPGPIPNSLPQNIPPLTQTPVVVPPFLQPEVMGVSKVKEAMAPKHKEMPFPKYPVEPFTESQSLTLTDVENLHLPLPLLQSWMHQPHQPLPPTVMFPPQSVLSLSQSKVLPVPQKAVPYPQRDMPIQAFLLYQEPVLGPVRGPFPIIV
# modifications: 5 phosphorylations
# notes: β-casein phosphoprotein with 5 phosphorylated residues, item 3
# Columns and labels:
# [1] = Test for nanocluster formation (absence of precipitation); format: physicochemical; conditions: standard conditions for β-casein phosphopeptide nanoclusters modified to the smallest extent; absence of precipitation = nanocluster-like particles
# Description: Nanocluster formation was investigated with the following phosphoproteins, phosphoprotein mixtures, phosphopeptides and phosphopeptide mixtures: • 1. Whole casein • 2. Mixtures of β- and κ-caseins • 3. β-casein 5P • 4. A commercial phosphopeptide mixture supplied by MD foods and derived from casein, containing a large number of phosphopeptides as described by Ellegard et al. (1999). • 5. A phosphopeptide mixture derived from a digestion of whole casein with protease XIV from Streptomyces griseus, and papain type IV containing αs1-casein 2P (f46-51), αs1-casein 4P (f61-70), β-casein 4P (f11-21), αs2-casein 3P (f5-12), αs2-casein 4P (f49-61) and αs2-casein 2P (f126-133). • 6. β-casein phosphopeptides 4P (f1-25) or 4P (f2-25) or 5P (f1-42) • 7. Cyanogen bromide cleavage fragments αs1-casein 2P (f1-54) or αs1-casein 6P (f61-123). • […]. Tryptic phosphopeptides αs1-casein 1P (f104-119) or αs1-casein 2P (f43-58) or αs1-casein 5P (f59-79) or αs1-casein 7P (f43-79)
# A test for nanocluster formation was applied in which the standard conditions for the formation of nanoclusters from the β-casein phosphopeptide were modified to the smallest extent possible and applied to the other peptides or peptide mixtures. […] Nanoclusters were found with each of the 6 phosphopeptides and confirmed experimentally by X-ray scattering measurements.
# [2] = Confirmation of nanocluster formation by small angle X-ray or neutron scattering; format: physicochemical
# Description: The formation of nanoclusters, nanocluster-like particles or larger particles composed of assemblies of nanoclusters has been established by small angle X-ray or neutron scattering experiments, as described by Holt et al. (1996, 1998).
# [3] = small angle X-ray or neutron scattering; Holt et al., 1996, 1998; cited from earlier work
Molecule,outcome of test for nanocluster formation [1],Conclusion (nanocluster formation) [2],Conclusion (nanocluster formation) [3]
"αs1-casein 5P (f59-79): tryptic phosphopeptide of αs1-casein, item 8 (QMEAESISSSEEIVPNSVEQK; also: 5 phosphorylations, sites not given here; UniProt P02662 74-94, looked up, fragment)",Nanoclusters were formed,Clear solution of stable nanoclusters in the normal,
"αs1-casein 7P (f43-79): tryptic phosphopeptide of αs1-casein, item 8 (DIGSESTEDQAMEDIKQMEAESISSSEEIVPNSVEQK; also: 7 phosphorylations, sites not given here; UniProt P02662 58-94, looked up, fragment)",Nanoclusters were formed,Clear solution of stable nanoclusters in the normal,
"αs1-casein 2P (f43-58): tryptic phosphopeptide of αs1-casein, item 8 (DIGSESTEDQAMEDIK; also: 2 phosphorylations, sites not given here; UniProt P02662 58-73, looked up, fragment)",No stable nanocluster solution was formed,Precipitation of calcium phosphate,
"β-casein phosphopeptide 4P (f2-25): β-casein phosphopeptide residues 2-25 with 4 phosphorylated residues, item 6 (ELEELNVPGEIVESLSSSEESITR; also: 4 phosphorylations, sites not given here; UniProt P02666 17-40, looked up, fragment)",,Monodisperse nanoclusters formed,
"β-casein phosphopeptide 4P (f1-25): β-casein phosphopeptide residues 1-25 with 4 phosphorylated residues, item 6 (RELEELNVPGEIVESLSSSEESITR; also: 4 phosphorylations, sites not given here; UniProt P02666 16-40, looked up, fragment)",,,"Monodisperse nanoclusters formed (Holt et al., 1996,"
"β-casein phosphopeptide 5P (f1-42): β-casein phosphopeptide residues 1-42 with 5 phosphorylated residues, item 6 (RELEELNVPGEIVESLSSSEESITRINKKIEKFQSEEQQQTE; also: 5 phosphorylations, sites not given here; UniProt P02666 16-57, looked up, fragment)",,,"Monodisperse nanoclusters formed (Holt et al., 1996,"
"αs1-casein 2P (f1-54): cyanogen bromide cleavage fragment of αs1-casein, item 7 (RPKHPIKHQGLPQEVLNENLLRFFVAPFPEVFGKEKVNELSKDIGSESTEDQAM; also: 2 phosphorylations, sites not given here; UniProt P02662 16-69, looked up, fragment)",failed to dissolve,,
"αs1-casein 1P (f104-119): tryptic phosphopeptide of αs1-casein, item 8 (YKVPQLEIVPNSAEER; also: 1 phosphorylation, site not given here; UniProt P02662 119-134, looked up, fragment)",No stable nanocluster solution was formed,Precipitation of calcium phosphate,
B1,underwent an unlimited aggregation,Uncontrolled precipitation of the β-casein aggregates,
